# Data taken from publication PMC10491584, “Structural convergence endows nuclear transport receptor Kap114p with a transcriptional repressor function toward TATA-binding protein” (Nature Communications, 2023).
# “And” between values parts separate entries of the source, which are not always exact repeats. Equal values may be shown once.
# T1: Kap114pΔ(932-941) (S. cerevisiae, UniProt P53067 1-1004, Δ(932-941))
# T1 construct: Kap114p, S. cerevisiae, full length with residues 932-941 deleted; also called Kap114p(D932-941); Kap114p deletion mutant lacking the HEAT19 loop (a.a. 932-941); source: E. coli (Rosetta strain), purified (GST resin, MonoQ, Superdex 200)
# T1 sequence (looked up): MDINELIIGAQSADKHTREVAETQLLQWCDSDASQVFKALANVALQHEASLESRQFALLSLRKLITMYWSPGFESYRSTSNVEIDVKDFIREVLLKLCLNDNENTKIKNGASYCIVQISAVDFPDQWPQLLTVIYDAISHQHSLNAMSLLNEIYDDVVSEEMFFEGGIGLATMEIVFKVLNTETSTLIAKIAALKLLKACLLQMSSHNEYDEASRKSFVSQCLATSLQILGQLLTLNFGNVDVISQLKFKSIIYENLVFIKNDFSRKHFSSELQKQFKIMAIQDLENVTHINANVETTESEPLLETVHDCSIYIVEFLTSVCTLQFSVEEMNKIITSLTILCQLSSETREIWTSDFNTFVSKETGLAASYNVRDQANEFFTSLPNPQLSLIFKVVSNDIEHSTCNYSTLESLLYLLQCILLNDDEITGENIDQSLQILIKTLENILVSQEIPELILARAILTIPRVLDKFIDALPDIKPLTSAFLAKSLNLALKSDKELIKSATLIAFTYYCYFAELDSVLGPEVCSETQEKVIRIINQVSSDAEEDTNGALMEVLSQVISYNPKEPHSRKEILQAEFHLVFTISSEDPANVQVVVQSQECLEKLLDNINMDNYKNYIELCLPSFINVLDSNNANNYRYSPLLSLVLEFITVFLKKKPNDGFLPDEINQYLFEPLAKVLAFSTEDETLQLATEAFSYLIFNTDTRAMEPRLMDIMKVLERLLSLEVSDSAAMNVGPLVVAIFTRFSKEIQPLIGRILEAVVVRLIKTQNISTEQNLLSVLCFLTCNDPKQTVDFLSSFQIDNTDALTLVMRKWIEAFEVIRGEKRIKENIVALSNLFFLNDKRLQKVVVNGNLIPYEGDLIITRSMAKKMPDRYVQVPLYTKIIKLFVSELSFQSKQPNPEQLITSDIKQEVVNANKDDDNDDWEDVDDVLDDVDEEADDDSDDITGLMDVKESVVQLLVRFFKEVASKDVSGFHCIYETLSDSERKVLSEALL
# T2: Kap114p (S. cerevisiae, UniProt P53067 1-1004)
# T2 construct: Kap114p, S. cerevisiae, full length, amplified from total genomic DNA; also called wild type Kap114p; source: E. coli (Rosetta strain), purified (GST resin, MonoQ, Superdex 200)
# T2 sequence (looked up): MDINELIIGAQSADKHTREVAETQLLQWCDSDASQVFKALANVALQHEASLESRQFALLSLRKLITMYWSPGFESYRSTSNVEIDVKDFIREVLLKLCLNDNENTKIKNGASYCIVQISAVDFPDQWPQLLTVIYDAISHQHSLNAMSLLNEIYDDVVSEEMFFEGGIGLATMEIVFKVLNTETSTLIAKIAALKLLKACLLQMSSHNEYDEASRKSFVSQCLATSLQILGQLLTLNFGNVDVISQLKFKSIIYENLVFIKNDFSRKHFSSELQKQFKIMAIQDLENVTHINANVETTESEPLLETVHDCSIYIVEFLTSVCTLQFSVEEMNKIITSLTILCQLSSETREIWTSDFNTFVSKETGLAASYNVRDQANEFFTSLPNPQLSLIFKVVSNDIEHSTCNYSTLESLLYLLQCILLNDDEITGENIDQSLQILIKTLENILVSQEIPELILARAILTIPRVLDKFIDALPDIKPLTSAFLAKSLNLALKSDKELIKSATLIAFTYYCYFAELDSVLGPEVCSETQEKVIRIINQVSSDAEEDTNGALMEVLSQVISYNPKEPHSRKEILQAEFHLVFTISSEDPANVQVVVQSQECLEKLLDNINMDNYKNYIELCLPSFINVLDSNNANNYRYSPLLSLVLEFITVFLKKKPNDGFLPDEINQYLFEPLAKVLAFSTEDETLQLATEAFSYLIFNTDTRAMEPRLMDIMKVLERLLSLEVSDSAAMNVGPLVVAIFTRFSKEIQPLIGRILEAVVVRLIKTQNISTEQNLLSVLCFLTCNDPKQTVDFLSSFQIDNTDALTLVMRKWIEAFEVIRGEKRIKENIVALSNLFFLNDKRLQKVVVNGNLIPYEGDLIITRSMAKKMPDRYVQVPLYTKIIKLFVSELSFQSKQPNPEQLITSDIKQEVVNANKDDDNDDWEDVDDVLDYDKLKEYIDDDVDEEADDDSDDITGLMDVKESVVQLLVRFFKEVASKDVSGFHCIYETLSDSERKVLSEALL
# B1: core domain of yTBP (a.a. 61-240) (domain or fragment, S. cerevisiae, UniProt P13393 61-240, looked up)
# chain: SGIVPTLQNIVATVTLGCRLDLKTVALHARNAEYNPKRFAAVIMRIREPKTTALIFASGKMVVTGAKSEDDSKLASRKYARIIQKIGFAAKFTDFKIQNIVGSCDVKFPIRLEGLAFSHGTFSSYEPELFPGLIYRMVKPKIVLLIFVSGKIVLTGAKQREEIYQAFEAIYPVLSEFRKM
# notes: 61-240; also called yTBP^C; yTBPc; source: E. coli (Rosetta strain), purified (Ni-NTA, HiTrap SP, Superdex 75); not shown: 6xHis, N-terminal, cleaved
# Key:
# Kap114pΔ(932-941) = biological target: T1, Kap114pΔ(932-941); assay: ITC; Kap114p (wild type or mutant) 50 uM in the sample cell, partner 500 uM in the syringe; 25 °C; 20 mM HEPES pH 7.4, 150 mM NaCl; triplicate; conditions: both partners purified
# Kap114p = biological target: T2, Kap114p; assay: as above; conditions: both partners purified
binder,measurement,setting,value
B1,Ka,Kap114pΔ(932-941),5.09e+06 M⁻¹ and 8.69e+06 M⁻¹ and 6.15e+06 M⁻¹
same,Ka,Kap114p,9.85e+08 M⁻¹ and 6.92e+08 M⁻¹ and 9.37e+08 M⁻¹
